Tests used:
mUCP2 promoter = assay: NHR-promoter luciferase screen, mUCP2 promoter; format: cell-based, mouse; details: for Luc. act., normalized to lacZ / Normalized Luc. act., normalized to control: mUCP2 promoter reporter, co-transfected HR, with or without its ligand; for Normalized Luc. act., normalized to control: relative to control; for luciferase activity normalized to lacZ activity and to a control, mUCP2: mUCP2 promoter-luciferase, CV-1 cells, NHR +/- ligand, control = 1.00
In short: (§1)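 CV-1 cells were co-transfected with 50 ng NHR (homodimer or NHR/RXR heterodimer), 100 ng promoter-luciferase construct and 50 ng LacZ. Luciferase was normalized to LacZ and to a no-NHR/no-ligand control.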

hCYP3A4 promoter = assay: NHR-promoter luciferase screen, hCYP3A4 promoter; format: cell-based, human; details: for Luc. act., normalized to lacZ / Normalized Luc. act., normalized to control: CYP3A4 promoter, HR/ligand component; for hCYP3A4 promoter reporter activity: transcription factor +/- ligand, control = 1.00
In short: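 Luciferase reporter read-out after co-expression in CV-1 cells of V5H6-tagged receptor (alone or with RXR), the promoter construct and LacZ. Values are luciferase/LacZ relative to a control lacking NHR or ligand; orphan receptors tested ligand-free.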

mPer1 promoter = assay: NHR-promoter luciferase screen, mPer1 promoter; format: cell-based, mouse; details: for Luc. act., normalized to lacZ / Normalized Luc. act., normalized to control: Per1 promoter reporter, co-transfected HR, with or without its ligand; for Normalized Luc. act., normalized to control: relative to control; for luciferase activity normalized to lacZ activity and to a control, mPer1: mPer1 promoter-luciferase, CV-1 cells, NHR +/- ligand, control = 1.00
In short: as §1

hMyoD promoter = assay: NHR-promoter luciferase screen, hMyoD promoter; format: cell-based, human; details: for Luc. act., normalized to lacZ / Normalized Luc. act., normalized to control: MyoD promoter reporter, co-transfected HR, without or with its ligand; for Normalized Luc. act., normalized to control: relative to control; for luciferase activity normalized to lacZ activity and to a control, hMyoD: hMyoD promoter-luciferase, CV-1 cells, NHR +/- ligand, control = 1.00
In short: as §1

hPPARg1 promoter = assay: NHR-promoter luciferase screen, hPPARg1 promoter; format: cell-based, human; details: for Luc. act., normalized to lacZ / Normalized Luc. act., normalized to control: PPARG1 promoter, hormone receptor with or without its ligand; for Normalized Luc. act., normalized to control: relative to control; for Results of assays of transcription factor (+/- ligand) with hPPARg1: Table 6d, luciferase activity relative to control (control = 1.00)
In short: as §1

MCP-1 promoter = assay: NHR-promoter luciferase screen, MCP-1 promoter; format: cell-based; details: for Normalized Luc. act., normalized to control / Luc. act., normalized to lacZ: MCP-1 promoter reporter; for Normalized Luc. act., normalized to control: HR without or with its ligand, relative to control; for Luc. act., normalized to lacZ: hormone receptor (HR) without or with its ligand; for mMCP-1 promoter reporter activity: transcription factor +/- ligand, control = 1.00
In short: as §1

B1: CAR: Constitutive Androstane Receptor (NR1I3), cDNA driver (protein, UniProt Q14994 1-352, looked up)
Nuclear receptor subfamily 1 …: MASREDELRNCVVCGDQATGYHFNALTCEGCKGFFRRTVSKSIGPTCPFAGSCEVSKTQRRHCPACRLQKCLDAGMRKDMILSAEALALRRAKQAQRRAQQTPVQLSKEQEELIRTLLGAHTRHMGTMFEQFVQFRPPAHLFIHHQPLPTLAPVLPLVTHFADINTFMVLQVIKFTKDLPVFRSLPIEDQISLLKGAAVEICHIVLNTTFCLQTQNFLCGPLRYTIEDGARVSPTVGFQVEFLELLFHFHGTLRKLQLQEPEYVLLAAMALFSPDRPGVTQRDEIDQLQEEMALTLQSYIKGQQRRPRDRFLYAKLLGLLAELRSINEAYGYQIQHIQGLSAMMPLLQEICS
mUCP2 promoter
  Luc. act., normalized to lacZ: 151.6
  Normalized Luc. act., normalized to control: 1.4
  luciferase activity normalized to lacZ activity and to a control, mUCP2: 1.38
hCYP3A4 promoter
  Luc. act., normalized to lacZ: 3.1
  Normalized Luc. act., normalized to control: 0.7
  hCYP3A4 promoter reporter activity: 0.70
mPer1 promoter
  Luc. act., normalized to lacZ: 86.6
  Normalized Luc. act., normalized to control: 0.6
  luciferase activity normalized to lacZ activity and to a control, mPer1: 0.60
hMyoD promoter
  Luc. act., normalized to lacZ: 51.2
  Normalized Luc. act., normalized to control: 0.8
  luciferase activity normalized to lacZ activity and to a control, hMyoD: 0.81
hPPARg1 promoter
  Luc. act., normalized to lacZ: 46.4
  Normalized Luc. act., normalized to control: 0.7
  Results of assays of transcription factor (+/- ligand) with hPPARg1: 0.67
MCP-1 promoter
  Normalized Luc. act., normalized to control: 1.1
  Luc. act., normalized to lacZ: 115.7
  mMCP-1 promoter reporter activity: 1.08

B2: RXRb: Retinoic X Receptor β (NR2B2), cDNA driver (protein, UniProt P28702 1-533, looked up)
Retinoic acid receptor …: MSWAARPPFLPQRHAAGQCGPVGVRKEMHCGVASRWRRRRPWLDPAAAAAAAVAGGEQQTPEPEPGEAGRDGMGDSGRDSRSPDSSSPNPLPQGVPPPSPPGPPLPPSTAPSLGGSGAPPPPPMPPPPLGSPFPVISSSMGSPGLPPPAPPGFSGPVSSPQINSTVSLPGGGSGPPEDVKPPVLGVRGLHCPPPPGGPGAGKRLCAICGDRSSGKHYGVYSCEGCKGFFKRTIRKDLTYSCRDNKDCTVDKRQRNRCQYCRYQKCLATGMKREAVQEERQRGKDKDGDGEGAGGAPEEMPVDRILEAELAVEQKSDQGVEGPGGTGGSGSSPNDPVTNICQAADKQLFTLVEWAKRIPHFSSLPLDDQVILLRAGWNELLIASFSHRSIDVRDGILLATGLHVHRNSAHSAGVGAIFDRVLTELVSKMRDMRMDKTELGCLRAIILFNPDAKGLSNPSEVEVLREKVYASLETYCKQKYPEQQGRFAKLLLRLPALRSIGLKCLEHLFFFKLIGDTPIDTFLMEMLEAPHQLA
mUCP2 promoter
  Luc. act., normalized to lacZ: 87.7
  Normalized Luc. act., normalized to control: 0.8
  luciferase activity normalized to lacZ activity and to a control, mUCP2: 0.80
hCYP3A4 promoter
  Luc. act., normalized to lacZ: 0.3
  Normalized Luc. act., normalized to control: 0.1
  hCYP3A4 promoter reporter activity: 0.06
mPer1 promoter
  Luc. act., normalized to lacZ: 50.5
  Normalized Luc. act., normalized to control: 0.4
  luciferase activity normalized to lacZ activity and to a control, mPer1: 0.35
hMyoD promoter
  Luc. act., normalized to lacZ: 54.3
  Normalized Luc. act., normalized to control: 0.9
  luciferase activity normalized to lacZ activity and to a control, hMyoD: 0.86
hPPARg1 promoter
  Luc. act., normalized to lacZ: 23.1
  Normalized Luc. act., normalized to control: 0.3
  Results of assays of transcription factor (+/- ligand) with hPPARg1: 0.34
MCP-1 promoter
  Normalized Luc. act., normalized to control: 0.0
  mMCP-1 promoter reporter activity: 0.00

B3: RXRg: Retinoic X Receptor γ (NR2B3), cDNA driver (protein, UniProt P48443 1-463, looked up)
Retinoic acid receptor …: MYGNYSHFMKFPAGYGGSPGHTGSTSMSPSAALSTGKPMDSHPSYTDTPVSAPRTLSAVGTPLNALGSPYRVITSAMGPPSGALAAPPGINLVAPPSSQLNVVNSVSSSEDIKPLPGLPGIGNMNYPSTSPGSLVKHICAICGDRSSGKHYGVYSCEGCKGFFKRTIRKDLIYTCRDNKDCLIDKRQRNRCQYCRYQKCLVMGMKREAVQEERQRSRERAESEAECATSGHEDMPVERILEAELAVEPKTESYGDMNMENSTNDPVTNICHAADKQLFTLVEWAKRIPHFSDLTLEDQVILLRAGWNELLIASFSHRSVSVQDGILLATGLHVHRSSAHSAGVGSIFDRVLTELVSKMKDMQMDKSELGCLRAIVLFNPDAKGLSNPSEVETLREKVYATLEAYTKQKYPEQPGRFAKLLLRLPALRSIGLKCLEHLFFFKLIGDTPIDTFLMEMLETPLQIT
mUCP2 promoter
  Luc. act., normalized to lacZ: 144.4
  Normalized Luc. act., normalized to control: 1.3
  luciferase activity normalized to lacZ activity and to a control, mUCP2: 1.31
hCYP3A4 promoter
  Luc. act., normalized to lacZ: 0.9
  Normalized Luc. act., normalized to control: 0.2
  hCYP3A4 promoter reporter activity: 0.19
mPer1 promoter
  Luc. act., normalized to lacZ: 94.5
  Normalized Luc. act., normalized to control: 0.7
  luciferase activity normalized to lacZ activity and to a control, mPer1: 0.66
hMyoD promoter
  Luc. act., normalized to lacZ: 67.6
  Normalized Luc. act., normalized to control: 1.1
  luciferase activity normalized to lacZ activity and to a control, hMyoD: 1.07
hPPARg1 promoter
  Luc. act., normalized to lacZ: 43.7
  Normalized Luc. act., normalized to control: 0.6
  Results of assays of transcription factor (+/- ligand) with hPPARg1: 0.63
MCP-1 promoter
  Normalized Luc. act., normalized to control: 2.0
  Luc. act., normalized to lacZ: 212.4
  mMCP-1 promoter reporter activity: 1.98

B4: RORb: RAR-related Orphan Receptor β (NR1F2), cDNA driver (protein, UniProt Q92753 1-470, looked up)
Nuclear receptor ROR-beta: MCENQLKTKADATAQIEVIPCKICGDKSSGIHYGVITCEGCKGFFRRSQQNNASYSCPRQRNCLIDRTNRNRCQHCRLQKCLALGMSRDAVKFGRMSKKQRDSLYAEVQKHQQRLQEQRQQQSGEAEALARVYSSSISNGLSNLNNETSGTYANGHVIDLPKSEGYYNVDSGQPSPDQSGLDMTGIKQIKQEPIYDLTSVPNLFTYSSFNNGQLAPGITMTEIDRIAQNIIKSHLETCQYTMEELHQLAWQTHTYEEIKAYQSKSREALWQQCAIQITHAIQYVVEFAKRITGFMELCQNDQILLLKSGCLEVVLVRMCRAFNPLNNTVLFEGKYGGMQMFKALGSDDLVNEAFDFAKNLCSLQLTEEEIALFSSAVLISPDRAWLIEPRKVQKLQEKIYFALQHVIQKNHLDDETLAKLIAKIPTITAVCNLHGEKLQVFKQSHPEIVNTLFPPLYKELFNPDCATGCK
mUCP2 promoter
  Luc. act., normalized to lacZ: 176.2
  Normalized Luc. act., normalized to control: 1.6
  luciferase activity normalized to lacZ activity and to a control, mUCP2: 1.60
hCYP3A4 promoter
  Luc. act., normalized to lacZ: 2.5
  Normalized Luc. act., normalized to control: 0.6
  hCYP3A4 promoter reporter activity: 0.56
mPer1 promoter
  Luc. act., normalized to lacZ: 112.0
  Normalized Luc. act., normalized to control: 0.8
  luciferase activity normalized to lacZ activity and to a control, mPer1: 0.78
hMyoD promoter
  Luc. act., normalized to lacZ: 73.9
  Normalized Luc. act., normalized to control: 1.2
  luciferase activity normalized to lacZ activity and to a control, hMyoD: 1.17
hPPARg1 promoter
  Luc. act., normalized to lacZ: 51.1
  Normalized Luc. act., normalized to control: 0.7
  Results of assays of transcription factor (+/- ligand) with hPPARg1: 0.74
MCP-1 promoter
  Normalized Luc. act., normalized to control: 1.6
  Luc. act., normalized to lacZ: 176.3
  mMCP-1 promoter reporter activity: 1.65

B5: HNF4g: Hepatocyte Nuclear Factor γ (NR2A2), cDNA driver (protein, UniProt Q14541 1-408, looked up)
Hepatocyte nuclear factor …: MNTTDNGVNCLCAICGDRATGKHYGASSCDGCKGFFRRSIRKSHVYSCRFSRQCVVDKDKRNQCRYCRLRKCFRAGMKKEAVQNERDRISTRRSTFDGSNIPSINTLAQAEVRSRQISVSSPGSSTDINVKKIASIGDVCESMKQQLLVLVEWAKYIPAFCELPLDDQVALLRAHAGEHLLLGATKRSMMYKDILLLGNNYVIHRNSCEVEISRVANRVLDELVRPFQEIQIDDNEYACLKAIVFFDPDAKGLSDPVKIKNMRFQVQIGLEDYINDRQYDSRGRFGELLLLLPTLQSITWQMIEQIQFVKLFGMVKIDNLLQEMLLGGASNDGSHLHHPMHPHLSQDPLTGQTILLGPMSTLVHADQISTPETPLPSPPQGSGQEQYKIAANQASVISHQHLSKQKQL
mUCP2 promoter
  Luc. act., normalized to lacZ: 114.8
  Normalized Luc. act., normalized to control: 1.0
  luciferase activity normalized to lacZ activity and to a control, mUCP2: 1.04
hCYP3A4 promoter
  Luc. act., normalized to lacZ: 1.8
  Normalized Luc. act., normalized to control: 0.4
  hCYP3A4 promoter reporter activity: 0.40
mPer1 promoter
  Luc. act., normalized to lacZ: 116.1
  Normalized Luc. act., normalized to control: 0.8
  luciferase activity normalized to lacZ activity and to a control, mPer1: 0.81
hMyoD promoter
  Luc. act., normalized to lacZ: 67.2
  Normalized Luc. act., normalized to control: 1.1
  luciferase activity normalized to lacZ activity and to a control, hMyoD: 1.06
hPPARg1 promoter
  Luc. act., normalized to lacZ: 42.1
  Normalized Luc. act., normalized to control: 0.6
  Results of assays of transcription factor (+/- ligand) with hPPARg1: 0.61
MCP-1 promoter
  Normalized Luc. act., normalized to control: 1.2
  Luc. act., normalized to lacZ: 128.6
  mMCP-1 promoter reporter activity: 1.20
